Experimental data: US20240010751A1 (EXELIXIS, published 2024)

How the values were obtained:
[1] = target: T1, CD47 on cells (target cells of the assays) (Homo sapiens (Human), UniProt Q08722 19-323); experiment: cell-based or functional assay
[2] = target: T1, CD47 on cells (target cells of the …); experiment: cell-based or functional assay; remark: listed apart in the source
[3] = target: PD-L1 on cells (target cells of the assays) (Homo sapiens (Human), UniProt Q9NZQ7 19-290); experiment: cell-based or functional assay
Chain of PD-L1 on cells (target cells of the assays) (Q9NZQ7 19-290 limits assumed): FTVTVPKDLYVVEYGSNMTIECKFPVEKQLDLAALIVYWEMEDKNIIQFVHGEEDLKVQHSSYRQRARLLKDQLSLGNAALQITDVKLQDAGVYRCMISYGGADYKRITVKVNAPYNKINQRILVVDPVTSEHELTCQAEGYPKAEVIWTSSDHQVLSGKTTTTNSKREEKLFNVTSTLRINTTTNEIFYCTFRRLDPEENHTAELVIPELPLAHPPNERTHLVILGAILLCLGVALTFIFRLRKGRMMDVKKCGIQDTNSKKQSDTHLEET

[4] = target: T2, CD47 and PD-L1 together on the surface of the same cells (CD47 PD-L1 TCA CHO cells); PD-L1 MDA-MB-231 cells; … (Homo sapiens (Human), UniProt Q08722 19-323; Q9NZQ7 19-290); experiment: flow cytometry on Jeko-PD-L1 cells (both targets on the cells); BC44 format
[5] = target: T2, CD47 and PD-L1 together on the surface …; experiment: flow cytometry on PD-L1 MDA-MB-231 cells (both targets on the cells); BC44 format
[6] = target: T3, biotinylated human PD-L1 (extracellular domain, Acro Biosystems) (human, UniProt Q9NZQ7 19-238, biotinylated); experiment: Octet in-tandem cross-competition, 100 nM biotinylated antigen on a streptavidin sensor
T3 construct: Bought protein; also called biotinylated antigen; biotinylated human PD-L1-His Avitag; not shown: His Avitag or His tag
T3 sequence (Q9NZQ7 19-238): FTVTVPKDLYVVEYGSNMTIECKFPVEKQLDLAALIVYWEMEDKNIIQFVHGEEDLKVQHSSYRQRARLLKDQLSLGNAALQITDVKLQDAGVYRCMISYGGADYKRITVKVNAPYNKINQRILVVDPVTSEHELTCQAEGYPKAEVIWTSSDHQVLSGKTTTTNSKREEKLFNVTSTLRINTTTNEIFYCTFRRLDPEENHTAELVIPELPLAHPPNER

Binder | IC50, CD47/SIRPα Inhibition Assay in PD-L1 MDA-MB-231 Cells [1] [nM] | IC50, CD47/SIRPα Inhibition Assay, JeKo-PD-L1 Cells [2] [nM] | IC50, PD-1/PD-L1 Inhibition Assay in Jeko-PD-L1 Cells [3] [nM] | IC50, PD-1/PD-L1 Inhibition Assay in MDA-MB-231 PD-L1 Cells [3] [nM] | EC50 [4] [nM] | EC50 [5] [nM] | binding result [6]
C40 x P24 bispecific antibody in a BC44 format (bispecific antibody, B-Body of four polypeptide chains, BC44 format; CD47 arm from C40, PD-L1 arm from P24; also called C40 × P24) chain 1: not shown chain 2: EVQLVESGGGLVQPGGSLRLSCAASGFTFSYYYIHWVRQAPGKGLEWVAWIDPYGHSTTYADSVKGRFTISADTSKNTAYLQMNSLRAEDTAVYYCARGGRGAMDYWGQGTLVTVSSASPREPQVYTLPPCRDELTKNQVSLTCLVKGFYPSDIAVEWESNGQPENNYKTTPPVLDSDGSFFLYSKLTVDKSRWQQGNVFSCSVMHEALHNHYTQKSLSLSPGK chain 3: DIQMTQSPSSLSASVGDRVTITCRASQSVSSAVAWYQQKPGKAPKLLIYSASSLYSGVPSRFSGSRSGTDFTLTISSLQPEDFATYYCQQVSYSPYTFGQGTKVEIKRTVAAPSVFIFPPSDEQLKSGTASVVCLLNNFYPREAKVQWKVDNALQSGNSQESVTEQDSKDSTYSLSSTLTLSKADYEKHKVYACEVTHQGLSSPVTKSFNRGECDKTHTCPPCPAPELLGGPSVFLFPPKPKDTLMISRTPEVTCVVVDVSHEDPEVKFNWYVDGVEVHNAKTKPREEQYNSTYRVVSVLTVLHQDWLNGKEYKCKVSNKALPAPIEKTISKAKGQPREPQVCTLPPSREEMTKNQVSLSCAVKGFYPSDIAVEWESNGQPENNYKTTPPVLDSDGSFFLVSKLTVDKSRWQQGNVFSCSVMHEALHNHYTQKSLSLSPGK chain 4: EVQLVESGGGLVQPGGSLRLSCAASGFTFDQYYIHWVRQAPGKGLEWVAEIYPAGSYTYYADSVKGRFTISADTSKNTAYLQMNSLRAEDTAVYYCARGPYSVRYALDYWGQGTLVTVSSASTKGPSVFPLAPSSKSTSGGTAALGCLVKDYFPEPVTVSWNSGALTSGVHTFPAVLQSSGLYSLSSVVTVPSSSLGTQTYICNVNHKPSNTKVDKKVEPPKSC | 0.112 | 1.26 | 0.275 | 1.3 | 0.703 | 3.1 | –
C40 x P24 (silent Fc) bispecific antibody in a BC44 format (bispecific antibody) chain 1: not shown chain 2: EVQLVESGGGLVQPGGSLRLSCAASGFTFSYYYIHWVRQAPGKGLEWVAWIDPYGHSTTYADSVKGRFTISADTSKNTAYLQMNSLRAEDTAVYYCARGGRGAMDYWGQGTLVTVSSASPREPQVYTLPPCRDELTKNQVSLTCLVKGFYPSDIAVEWESNGQPENNYKTTPPVLDSDGSFFLYSKLTVDKSRWQQGNVFSCSVMHEALHNHYTQKSLSLSPGK chain 3: DIQMTQSPSSLSASVGDRVTITCRASQSVSSAVAWYQQKPGKAPKLLIYSASSLYSGVPSRFSGSRSGTDFTLTISSLQPEDFATYYCQQVSYSPYTFGQGTKVEIKRTVAAPSVFIFPPSDEQLKSGTASVVCLLNNFYPREAKVQWKVDNALQSGNSQESVTEQDSKDSTYSLSSTLTLSKADYEKHKVYACEVTHQGLSSPVTKSFNRGECDKTHTCPPCPAPEAAGGPSVFLFPPKPKDTLMISRTPEVTCVVVDVSHEDPEVKFNWYVDGVEVHNAKTKPREEQYNSTYRVVSVLTVLHQDWLNGKEYKCKVSNKALKAPIEKTISKAKGQPREPQVCTLPPSREEMTKNQVSLSCAVKGFYPSDIAVEWESNGQPENNYKTTPPVLDSDGSFFLVSKLTVDKSRWQQGNVFSCSVMHEALHNHYTQKSLSLSPGK chain 4: EVQLVESGGGLVQPGGSLRLSCAASGFTFDQYYIHWVRQAPGKGLEWVAEIYPAGSYTYYADSVKGRFTISADTSKNTAYLQMNSLRAEDTAVYYCARGPYSVRYALDYWGQGTLVTVSSASTKGPSVFPLAPSSKSTSGGTAALGCLVKDYFPEPVTVSWNSGALTSGVHTFPAVLQSSGLYSLSSVVTVPSSSLGTQTYICNVNHKPSNTKVDKKVEPPKSC | – | 0.26 | 0.274 | 14.7 | – | – | –
C56 x P22 bispecific antibody in a BC44 format (bispecific antibody, B-Body of four polypeptide chains, BC44 format; CD47 arm from C56, PD-L1 arm from P22; also called C56 × P22) chain 1: not shown chain 2: EVQLVESGGGLVQPGGSLRLSCAASGFTFTYYYIHWVRQAPGKGLEWVAFIDPYSGSTEYADSVKGRFTISADTSKNTAYLQMNSLRAEDTAVYYCARGGLYALDYWGQGTLVTVSSASPREPQVYTLPPCRDELTKNQVSLTCLVKGFYPSDIAVEWESNGQPENNYKTTPPVLDSDGSFFLYSKLTVDKSRWQQGNVFSCSVMHEALHNHYTQKSLSLSPGK chain 3: DIQMTQSPSSLSASVGDRVTITCRASQSVSSAVAWYQQKPGKAPKLLIYSASSLYSGVPSRFSGSRSGTDFTLTISSLQPEDFATYYCQQYYTSPYTFGQGTKVEIKRTVAAPSVFIFPPSDEQLKSGTASVVCLLNNFYPREAKVQWKVDNALQSGNSQESVTEQDSKDSTYSLSSTLTLSKADYEKHKVYACEVTHQGLSSPVTKSFNRGECDKTHTCPPCPAPELLGGPSVFLFPPKPKDTLMISRTPEVTCVVVDVSHEDPEVKFNWYVDGVEVHNAKTKPREEQYNSTYRVVSVLTVLHQDWLNGKEYKCKVSNKALPAPIEKTISKAKGQPREPQVCTLPPSREEMTKNQVSLSCAVKGFYPSDIAVEWESNGQPENNYKTTPPVLDSDGSFFLVSKLTVDKSRWQQGNVFSCSVMHEALHNHYTQKSLSLSPGK chain 4: EVQLVESGGGLVQPGGSLRLSCAASGFTFSSYYIHWVRQAPGKGLEWVAWITSHGYSTKYADSVKGRFTISADTSKNTAYLQMNSLRAEDTAVYYCARDSVIYGLDYWGQGTLVTVSSASTKGPSVFPLAPSSKSTSGGTAALGCLVKDYFPEPVTVSWNSGALTSGVHTFPAVLQSSGLYSLSSVVTVPSSSLGTQTYICNVNHKPSNTKVDKKVEPPKSC | 0.218 | 1.2 | 1.99 | 3 | 0.218 | 1.2 | –
C59 x P31.2 bispecific antibody in a BC44 format (bispecific antibody, B-Body of four polypeptide chains, BC44 format; CD47 arm from C59, PD-L1 arm from P31.2; also called C59 × P31.2) chain 1: not shown chain 2: EVQLVESGGGLVQPGGSLRLSCAASGFTFTSYYIHWVRQAPGKGLEWVAYIDSKHGTTQYADSVKGRFTISADTSKNTAYLQMNSLRAEDTAVYYCARGGRSAMDYWGQGTLVTVSSASPREPQVYTLPPCRDELTKNQVSLTCLVKGFYPSDIAVEWESNGQPENNYKTTPPVLDSDGSFFLYSKLTVDKSRWQQGNVFSCSVMHEALHNHYTQKSLSLSPGK chain 3: DIQMTQSPSSLSASVGDRVTITCRASQSVSSAVAWYQQKPGKAPKLLIYSASSLYSGVPSRFSGSRSGTDFTLTISSLQPEDFATYYCQQFGAEPITFGQGTKVEIKRTVAAPSVFIFPPSDEQLKSGTASVVCLLNNFYPREAKVQWKVDNALQSGNSQESVTEQDSKDSTYSLSSTLTLSKADYEKHKVYACEVTHQGLSSPVTKSFNRGECDKTHTCPPCPAPELLGGPSVFLFPPKPKDTLMISRTPEVTCVVVDVSHEDPEVKFNWYVDGVEVHNAKTKPREEQYNSTYRVVSVLTVLHQDWLNGKEYKCKVSNKALPAPIEKTISKAKGQPREPQVCTLPPSREEMTKNQVSLSCAVKGFYPSDIAVEWESNGQPENNYKTTPPVLDSDGSFFLVSKLTVDKSRWQQGNVFSCSVMHEALHNHYTQKSLSLSPGK chain 4: EVQLVESGGGLVQPGGSLRLSCAASGFTFSSYYIHWVRQAPGKGLEWVATISSGGGFTYYADSVKGRFTISADTSKNTAYLQMNSLRAEDTAVYYCARGYTLTPVLDYWGQGTLVTVSSASTKGPSVFPLAPSSKSTSGGTAALGCLVKDYFPEPVTVSWNSGALTSGVHTFPAVLQSSGLYSLSSVVTVPSSSLGTQTYICNVNHKPSNTKVDKKVEPPKSC | 0.266 | – | 0.0268 | 3.7 | 0.256 | 2.5 | –
antibody designated P24 (antibody, V domains shown, Anti-PD-L1) VH: EVQLVESGGGLVQPGGSLRLSCAASGFTFDQYYIHWVRQAPGKGLEWVAEIYPAGSYTYYADSVKGRFTISADTSKNTAYLQMNSLRAEDTAVYYCARGPYSVRYALDYWGQGTLVT VL: DIQMTQSPSSLSASVGDRVTITCRASQSVSSAVAWYQQKPGKAPKLLIYSASSLYSGVPSRFSGSRSGTDFTLTISSLQPEDFATYYCQQVSYSPYTFGQGTKVEIK | – | – | – | – | – | – | binds
